# Patent US20050037394, “Method for in vitro selection of 2'-substituted nucleic acids” (published 2005)
# Key:
# [1] = target: T1, IFN-gamma (Homo sapiens, UniProt P01579 P01579:24-161); assay: inhibition; IFN-gamma/IFN-gamma-R1 ELISA day 1; day 2 190 nM; conditions: tags: R&D Systems, Minneapolis; chain copies: 2; label: 5'-32P
# Protocol: (§1) IFN-γ ELISA: The following ELISA method was used to measure the ability of IFN-γ aptamers to inhibit hIFN-γ from binding to the IFNγ-R1 receptor. To capture the IFNγ-R1, 175 ng of IFNγ-R1 (R&D systems, Minneapolis, Minn.) in 100 μl of PBS (pH 7.4) was incubated in each well of a Nunc Maxisorb plate (Nunc, Rochester, N.Y.) for 2 hours at room temperature. The solution was discarded and the plate was washed 3 times with 200 μl of TBS-T (25 mM Tris-HCl pH 7.5, 150 mM NaCl and 0.01% Tween −20). The plate was then blocked with 200 μl of 5% nonfat dry milk in TBS-T for 30 minutes at room temperature. After blocking, the plate was washed 3 times with 200 μl of TBS-T. Then, 100 μl of various concentrations of aptamers mixed with 5 nmoles of IFN-γ (R & D Systems) were incubated in appropriate wells for 1.5 hours at room temperature. […] Subsequently, 100 μl of 2 N H₂SO₄ was added to stop the reaction and the plate was read in a SpectraMax 96 well plate reader at […].
# (§2) IFNγ-R1 Binding Inhibition with hIFN-γ Aptamers: Five full length and 2 minimized aptamers to IFN-γ were tested for receptor binding inhibition activity using the ELISA method described above. […] IC₅₀'s for the duplicate assays were calculated and are shown in Table 22 below along with Kd values for each of the respective aptamers.
# [2] = target: T1, IFN-gamma; assay: filter; 1x DPBS, 0.1 mg/ml BSA; Table 21 gives 227.87; conditions: tags: R&D Systems, Minneapolis; chain copies: 2; label: 5'-32P
# [3] = target: T2, VEGF (UniProt P15692-4 P15692-4:27-191); assay: filter; dot-blot in PBS; conditions: chain copies: 2
# T2 sequence (P15692 other isoform, or with tags, fused parts or gaps): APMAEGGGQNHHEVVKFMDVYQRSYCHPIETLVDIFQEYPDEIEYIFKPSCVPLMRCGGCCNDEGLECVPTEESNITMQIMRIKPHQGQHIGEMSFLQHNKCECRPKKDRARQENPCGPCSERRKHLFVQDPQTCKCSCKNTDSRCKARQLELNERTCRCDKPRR
# Protocol: (§3) Binding assays were performed with trace ³²P-body-labelled transcripts that were incubated with various protein concentrations in silanized wells, these were then passed through a sandwich of a nitrocellulose membrane over a nylon membrane. Protein-bound RNA is visualized on the NC membrane, unbound RNA on the nylon membrane. The proportion binding is then used to calculate affinity (see FIGS. 4, 5, and 6). The nomenclature “mGXG” indicates a substitution of 2′-OH G for 2′-OMe G at position “X”, as numbered sequentially from the 5′-terminus. Thus, mG7G ARC224 is ARC224 with a 2′-OH at position 7. ARC225 is ARC224 with 2′-OMe to 2′-OH substitutions at positions 7, 10, 14, 16, 19, 22 and 24. All constructs (initially identified by SELEX™) were generated by solid-phase chemical synthesis.
# [4] = target: T2, VEGF; assay: FP; placeholder corrected: dot-blot nitrocellulose/nylon filter in PBS; conditions: chain copies: 2
# Protocol: as §3
# [5] = target: T1, IFN-gamma; assay: filter; 1x DPBS, 0.1 mg/ml BSA; Table 21 gives 206; conditions: tags: R&D Systems, Minneapolis; chain copies: 2; label: 5'-32P
# [6] = target: T1, IFN-gamma; assay: inhibition; IFN-gamma/IFN-gamma-R1 ELISA day 1; day 2 70 nM; conditions: tags: R&D Systems, Minneapolis; chain copies: 2; label: 5'-32P
# Protocol: as §1, §2
# [7] = target: T1, IFN-gamma; assay: filter; 1x DPBS, 0.1 mg/ml BSA; Table 21 gives 167.31; conditions: tags: R&D Systems, Minneapolis; chain copies: 2; label: 5'-32P
# [8] = target: T1, IFN-gamma; assay: inhibition; IFN-gamma/IFN-gamma-R1 ELISA day 1; day 2 270 nM; conditions: tags: R&D Systems, Minneapolis; chain copies: 2; label: 5'-32P
# Protocol: as §1, §2
# [9] = target: T1, IFN-gamma; assay: filter; 1x DPBS, 0.1 mg/ml BSA; Table 21 gives 169.28; conditions: tags: R&D Systems, Minneapolis; chain copies: 2; label: 5'-32P
# [10] = target: T3, Complement C5 full length (Homo sapiens, UniProt P01031;P01031 P01031:19-673,P01031:678-1676); assay: inhibition; 0.2% human serum, sheep erythrocytes, GVB++, 25 C; conditions: tags: Quidel Corporation, San Diego
# T3 sequence (P01031 19-673, chain 1 of 2): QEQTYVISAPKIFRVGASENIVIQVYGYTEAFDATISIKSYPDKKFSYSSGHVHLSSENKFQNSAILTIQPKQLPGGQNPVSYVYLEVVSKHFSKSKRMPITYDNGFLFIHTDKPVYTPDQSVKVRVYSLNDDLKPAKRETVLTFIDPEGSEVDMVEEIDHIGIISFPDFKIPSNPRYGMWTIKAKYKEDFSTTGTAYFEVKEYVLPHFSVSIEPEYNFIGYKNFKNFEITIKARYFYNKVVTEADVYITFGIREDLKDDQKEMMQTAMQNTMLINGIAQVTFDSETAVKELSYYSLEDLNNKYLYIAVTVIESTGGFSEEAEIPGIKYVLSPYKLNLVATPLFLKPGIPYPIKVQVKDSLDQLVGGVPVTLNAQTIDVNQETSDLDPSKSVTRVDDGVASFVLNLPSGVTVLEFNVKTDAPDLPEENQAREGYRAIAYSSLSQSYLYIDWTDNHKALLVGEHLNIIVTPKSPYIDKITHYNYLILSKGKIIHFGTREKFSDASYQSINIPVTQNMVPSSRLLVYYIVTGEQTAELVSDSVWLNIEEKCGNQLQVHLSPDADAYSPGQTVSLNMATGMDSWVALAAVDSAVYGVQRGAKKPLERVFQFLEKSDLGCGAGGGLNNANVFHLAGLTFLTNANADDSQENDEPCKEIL
# T3 sequence (P01031 678-1676, chain 2 of 2): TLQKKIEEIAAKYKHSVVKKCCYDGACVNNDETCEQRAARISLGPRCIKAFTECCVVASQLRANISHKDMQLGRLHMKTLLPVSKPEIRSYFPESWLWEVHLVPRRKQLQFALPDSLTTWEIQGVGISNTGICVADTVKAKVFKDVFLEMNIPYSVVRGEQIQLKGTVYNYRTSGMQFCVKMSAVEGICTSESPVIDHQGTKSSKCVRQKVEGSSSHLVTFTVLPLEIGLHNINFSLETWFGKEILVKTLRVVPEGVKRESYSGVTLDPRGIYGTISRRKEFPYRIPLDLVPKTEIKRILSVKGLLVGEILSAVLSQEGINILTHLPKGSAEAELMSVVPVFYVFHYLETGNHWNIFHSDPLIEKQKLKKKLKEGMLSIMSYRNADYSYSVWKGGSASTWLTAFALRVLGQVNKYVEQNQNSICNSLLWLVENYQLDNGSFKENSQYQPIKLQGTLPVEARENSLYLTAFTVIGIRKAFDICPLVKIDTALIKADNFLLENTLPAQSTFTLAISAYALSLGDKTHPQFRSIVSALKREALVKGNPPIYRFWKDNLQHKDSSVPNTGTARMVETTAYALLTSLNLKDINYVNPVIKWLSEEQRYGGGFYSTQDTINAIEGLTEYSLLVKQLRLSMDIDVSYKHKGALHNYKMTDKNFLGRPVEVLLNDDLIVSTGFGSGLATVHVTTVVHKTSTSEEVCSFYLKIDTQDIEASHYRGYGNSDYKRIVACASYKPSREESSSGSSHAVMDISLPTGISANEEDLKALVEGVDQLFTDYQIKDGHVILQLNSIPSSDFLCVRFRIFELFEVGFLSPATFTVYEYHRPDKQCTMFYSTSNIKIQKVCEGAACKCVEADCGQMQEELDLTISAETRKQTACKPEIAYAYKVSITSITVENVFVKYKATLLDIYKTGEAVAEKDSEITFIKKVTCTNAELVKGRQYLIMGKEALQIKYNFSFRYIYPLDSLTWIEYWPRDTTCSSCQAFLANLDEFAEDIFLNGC
# Protocol: Hemolysis Assay: The effect of the AMX221.E1 clone on the classical pathway of the complement system was analyzed using a hemolysis assay compared to both ARC186 (Anti-C5 aptamer, positive control) and unselected dRmY pool (negative control). In the assay of hemolytic inhibition, a solution of 0.2% whole human serum was mixed with antibody-coated sheep erythrocytes (Diamedix EZ Complement CH50 Test, Diamedix Corporation, Miami, Fla.) in the presence oftitrated AMX221.E1. The assay was run in veronal-buffered saline containing calcium, magnesium and 1% gelatin (GVB⁺⁺ complement buffer) and incubated for 1 hr at 25° C. After incubation the samples were centrifuged. The optical density at 415 nm (OD₄₁₅) of the supernatant was read. The inhibition of hemolysis activity is expressed as % hemolysis activity compared to control. The IC₅₀ of the clone was calculated to be about 30 nM.
# [11] = target: T3, Complement C5 full length; assay: filter; 1x DPBS, extent of binding 20%; conditions: tags: Quidel Corporation, San Diego
# [12] = target: T2, VEGF; assay: competition; 125I-VEGF binding to HUVEC; conditions: chain copies: 2
# Description: FIG. 5 is a plot of ARC224 and ARC225 binding to VEGF. […] The supernatant was removed, the cells were washed, and bound VEGF was counted in a scintillation counter. ARC225 has the same sequence as ARC224 and 2′-OMe to 2′-OH substitutions at positions 7, 10, 14, 16, 19, 22 and 24 numbered from the 5′-terminus.
# [13] = target: T1, IFN-gamma; assay: inhibition; IFN-gamma/IFN-gamma-R1 ELISA day 1; day 2 100 nM; conditions: tags: R&D Systems, Minneapolis; chain copies: 2; label: 5'-32P
# Protocol: as §1, §2
# [14] = target: T1, IFN-gamma; assay: filter; 1x DPBS, 0.1 mg/ml BSA; Table 21 gives 97; conditions: tags: R&D Systems, Minneapolis; chain copies: 2; label: 5'-32P
# [15] = target: T1, IFN-gamma; assay: inhibition; ELISA day 2; text assigns ARC872 to E3 but printed sequence matches F3; conditions: tags: R&D Systems, Minneapolis; chain copies: 2; putative G4
# Protocol: as §1, §2
# [16] = target: T1, IFN-gamma; assay: inhibition; ELISA day 2; text assigns ARC873 to F3 but printed sequence matches E3; conditions: tags: R&D Systems, Minneapolis; chain copies: 2; putative G4
# Protocol: as §1, §2
# T1 sequence (P01579 24-161, one chain of several): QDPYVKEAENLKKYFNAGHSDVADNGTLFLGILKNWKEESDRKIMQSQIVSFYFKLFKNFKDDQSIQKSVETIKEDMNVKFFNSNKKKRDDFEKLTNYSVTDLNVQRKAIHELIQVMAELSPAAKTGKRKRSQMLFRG
binder,measurement,setting,value
"ARC818 (AMX(192)_E3) (mixed, dRmY: deoxy A,G; 2'-OMe C,U (cDNA printed, T=U)) DNA: GGGAGAGGAGAGAACGTTCTACGGGTGGCTGGGGCAGGGGAGGTAGGTAGGGTCGATCGATCGATCATCGATG",IC50,[1],220 nM
same,Kd,[2],180 nM
"AUGCAGUUUGAGAAGUCGCGCAU (ssRNA, 2'-OMe at all residues; 3'-inverted dT [2'-OMe at 1-23; 3'-inverted dT after nt 23 (not written in sequence)]) [ARC245]",Kd,[3],2.1 nM
"ACGCAGUUUGAGAAGUCGCGCGU (ssRNA, 2'-OMe at all residues; 3'-inverted dT [2'-OMe at 1-23; 3'-inverted dT after nt 23 (not written in sequence); base pair swap at 2 (U>C) and 22 (A>G)]) [ARC259]",Kd,[4],1.4 nM
"ARC819 (AMX(192)_F3) (mixed, dRmY: deoxy A,G; 2'-OMe C,U (cDNA printed, T=U)) DNA: GGGAGAGGAGAGAACGTTCTACGGGCGGTTGGGGTCGGGGAGGATGGTACAGGGTCGATCGATCGATCATCGATG",Kd,[5],180 nM
"ARC789 (AMX(192)_A5) (mixed, dRmY: deoxy A,G; 2'-OMe C,U (cDNA printed, T=U)) DNA: GGGAGAGGAGAGAACGTTCTACGTTTGCGGTCAGGATGGGGTGGTGGGAGGTCGATCGATCGATCATCGATG",IC50,[6],40 nM
same,Kd,[7],150 nM
"ARC820 (AMX(192)_D11) (mixed, dRmY: deoxy A,G; 2'-OMe C,U (cDNA printed, T=U)) DNA: GGGAGAGGAGAGAACGTTCTACGGGGAGGAGGGTGGGGTAGCAGGTGTGGCAGGTCGATCGATCGATCATCGATG",IC50,[8],280 nM
same,Kd,[9],170 nM
"AMX221.E1 (mixed, dRmY: deoxy A,G; 2'-OMe C,U (cDNA printed, T=U)) DNA: GGGAGAGGAGAGAACGTTCTACCTTGGTTTGGCACAGGCATACATACGCAGGGGTCGATCGATCGATCATCGATG",IC50,[10],~30 nM
same,Kd,[11],~140 nM
"CGAUAUGCAGUUUGAGAAGUCGCGCAUUCG (ssRNA, 2'-OMe at all residues; 3'-inverted dT [2'-OMe at 1-30; 3'-inverted dT after nt 30 (not written in sequence)]) [ARC224]",Kd,[3],3.9 nM
same,IC50,[12],~2 nM
"ARC821 (AMX(216)_A7) (mixed, dRmY: deoxy A,G; 2'-OMe C,U (cDNA printed, T=U)) DNA: GGGAGAGGAGAGAACGTTCTACGGGGGTCGTGGGAGTAAGGGGGTGTAGGTAGGTCGATCGATCGATCATCGATG",IC50,[13],130 nM
same,Kd,[14],140 nM
"GGGCGGUUGGGGUCGGGGAGGAUGGUACAGGG (mixed, dRmY: deoxy A,G; 2'-OMe C,U) [ARC872]",IC50,[15],200 nM
"GGGUGGCUGGGGCAGGGGAGGUAGGUAGGG (mixed, dRmY: deoxy A,G; 2'-OMe C,U) [ARC873]",IC50,[16],330 nM
